US20220112288A1 (published 2022)

Tests used:
[1] = molecular target: T1, human CD8 on human pan T cells (CD4-negative population) (human, UniProt P01732 22-235; P10966 22-210); assay: flow cytometry, 20 nM antibody on human pan T cells, A647 anti-human IgG Fc; geomean ratio in CD4-negative population
T1 construct: whole, on cells; Endogenous CD8 on primary human pan T cells, read in the CD4-negative gate; also called CD8α/β

[2] = molecular target: T2, human CD4 on cells (SKW3 cells; human PBMCs) (human, UniProt P01730 26-458); assay: FACS primary screen, hybridoma supernatant, SKW3 vs SKW3 CD4 KO cells;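 also: flow cytometry on mixed SKW3 and dye-labeled SKW3 CD4 knockout cells after 30 min at 4 °C with supernatant, ratio of binding signal on parental versus knockout cells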
T2 construct: whole, on cells; SKW3 CD4 knockout cells served as the negative cell line in the primary screen; also called hCD4; huCD4

[3] = molecular target: T2, human CD4 on cells (SKW3 cells; human …); assay: FACS confirmation, supernatant on human PBMCs;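 also: flow cytometry with hybridoma supernatants incubated on human PBMCs for 30 min at 4 °C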
[4] = molecular target: T2, human CD4 on cells (SKW3 cells; human …); assay: FACS confirmation, supernatant on SKW3 cells; background gMFI 2500
[5] = molecular target: T2, human CD4 on cells (SKW3 cells; human …); assay: FACS confirmation, supernatant on SKW3 cells; background gMFI 3300

T1 sequence (P01732 22-235, chain 1 of 2): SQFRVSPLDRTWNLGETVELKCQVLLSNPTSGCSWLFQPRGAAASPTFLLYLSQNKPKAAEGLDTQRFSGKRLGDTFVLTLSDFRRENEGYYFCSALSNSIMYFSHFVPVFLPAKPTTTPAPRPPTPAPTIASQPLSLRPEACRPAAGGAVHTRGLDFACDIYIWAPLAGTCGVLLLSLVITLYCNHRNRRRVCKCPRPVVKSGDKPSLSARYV
T1 sequence (P10966 22-210, chain 2 of 2): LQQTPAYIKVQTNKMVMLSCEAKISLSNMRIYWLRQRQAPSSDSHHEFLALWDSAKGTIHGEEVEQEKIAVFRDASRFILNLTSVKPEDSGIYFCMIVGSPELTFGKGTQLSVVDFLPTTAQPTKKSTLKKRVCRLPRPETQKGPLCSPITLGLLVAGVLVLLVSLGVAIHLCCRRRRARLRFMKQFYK

B1: CD8B268 (antibody, human IgG1, kappa, V domains shown)
VH: QVQLQQSGAELVKPGASVKLSCKASGYTFTVYTIHWVKQRSGQGLEWIGWFYPGSGNIKYNEKFKDKATLTADKSSHTVYMELSRLTSEDSAVYFCARHEDNHYYDGNSWFAYWGQGTLVTVSA
VL: DIQMTQSPASLSASVGQTVTITCRASGNIHNYLAWFQQKQGKSPQLLVYNAKTLADGVPSRFSGSGSGTQYSLKINSLQTEDFGNYYCQHFWNTPYTFGGGTKLEIKR
notes: Full-length human IgG1, kappa; V regions recovered from mouse hybridoma
- Cell Binding to Human PanT Signal/Background (of CD4 negative population) [1]: 1170

B2: CD8B350 (antibody, human IgG1, kappa, V domains shown)
VH: EVQLQQSGAELAKPGTSVKMSCKASGYTFAAYWINWLKQRPGQGLEWIGSINPSNGYTEYSQKFKDKAILTADKSSSTAYMQLSSLTSEDSAVYYCSRSGLYYTNHLAWCPYWGQGTTVTVSS
VL: DIVMTQSPASLSASVGETVTITCRASGNIHNYLAWYQQKQGKSPQVLVYNAETLADSVPSRFSGSGSGTQFSLKINSLQPEDFGNYYCQHFWNSPLTFGGGTKLEIKR
notes: as for B1
- Cell Binding to Human PanT Signal/Background (of CD4 negative population) [1]: 537

B3: CD8B273 (antibody, human IgG1, kappa, V domains shown)
VH: QVQLQQSGAELVKPGASVKLSCKASGYTFTEYTIHWVKQRSGQGLEWIGWFYPGTGSIKYNEKFKDKATLTADKSSHTVYMELSKLTSEDSAVYFCARHEDNHYYDGNSWFAYWGQGTLVTVSA
VL: DIQMTQSPASLSASVGETVTITCRASGNIHNYLAWFQQKQGKSPQLLVYNAKTLADGVPSRFSGSGSGTQYSLKINSLQAEDFGSYYCQHFWSTPYTFGSGTKLEIKR
notes: as for B1
- Cell Binding to Human PanT Signal/Background (of CD4 negative population) [1]: 938

B4: CD8B182 (antibody, human IgG1, kappa, V domains shown)
VH: EVQLQQSGAALAKPGTSVKMSCKASGYTFTSYWMNWVRQRPGQGLEWIGAVNPTNYYTEYIQKFKDKAILTADKSSSTAYMHLSGLTSEDSAVYYCARSGLYNTNHLAWFAYWGQGTTVTVSS
VL: DIKMTQSPASLSASVGETVTITCRASENIHNYLAWYQQIQGKSPQLLVYNAKTLANGVPSRFSGSASGTQFSLTINSLQPEDFGSYYCQHFWTTPLTFGAGTKLELKR
notes: as for B1
- Cell Binding to Human PanT Signal/Background (of CD4 negative population) [1]: 1490

B5: 75110_06E14A (antibody, V domains shown)
VH: QVQLQESGPGLVKPSETLSLTCTVSGGSISNYFWSWIRQPAGKGLEWIGRIYSSGNTNYNPSLKSRVTMSVDTSKNQFSLKLSSVTAADTAVYYCARDREDYYYYGMDVWGQGTTVTVSS
VL: DIQMTQSPSSLSASVGDRVTITCQASQDISNYLNWYQQKPGKAPKLLIYGASILETGVPSRFTGSGSGTDFTFTISSLQPEDIATYYCQQYDSLPITFGQGTRLEIK
notes: Tested as non-clonal AlivaMab Mouse Kappa hybridoma supernatant (detected with anti-mouse Fc gamma and anti-human kappa)
- SKW3 WT vs KO ratio, anti-hKappa-FITC [2]: 3
- SKW3 WT vs KO ratio, anti-mFc-647 [2]: 9.8
- PBMCs CD4+ gate RL1 binding, anti-mFc 647 [3]: 285000
- PBMCs CD4+ percent bound of viable [3]: 30%
- gMFI on SKW3 WT, anti-hu Kappa FITC [4]: 8920 gMFI
- gMFI on SKW3 WT, anti-mFc 647 [5]: 33800 gMFI

B6: 75110_14I16A (antibody, V domains shown)
VH: QVQLQESGPGLVKPSETLSLTCTVSNGSISSYYWSWIRQSAGKGLEWIGRIYTSGSTNYNPSLKSRVTMLVDTSKNQFSLKLSSVTAADTAVYYCARDREDYYYYGMDVWGQGTTVTVSS
VL: DIQMTQSPSSLSASVGDRVTITCQASHDISNYLNWYQQKPGKAPKLLLYYASNLETGVPSRFSGSGSGTDFTFTITSLQPEDIGTYSCQQYDNLPLTFGGGTKVEIK
notes: Tested as non-clonal AlivaMab Mouse Kappa hybridoma supernatant (detected with anti-mouse Fc gamma and anti-human kappa); also called 75110_14116A
- SKW3 WT vs KO ratio, anti-hKappa-FITC [2]: 1.4
- SKW3 WT vs KO ratio, anti-mFc-647 [2]: 2.1
- PBMCs CD4+ gate RL1 binding, anti-mFc 647 [3]: 196000
- PBMCs CD4+ percent bound of viable [3]: 23%
- gMFI on SKW3 WT, anti-hu Kappa FITC [4]: 3550 gMFI
- gMFI on SKW3 WT, anti-mFc 647 [5]: 6820 gMFI

B7: 75110_08M20A (antibody, V domains shown)
VH: QVQLQESDPGLVKPSETLSLTCTVSGGSISSYYWSWIRQPAGKGLEWIGRIYASGSTNYNPSLKSRVTMSVDTSKNQFSLKLSSVTAADTAVYYCARDREGYYYYGMDVWGQGTTVTVSS
VL: DIQMTQSPSSLSASVGDRVTITCQASQDISKYLNWYQQKPGKAPNLLIYAASNLETGVPSRFSGSGSGTDFTFTISSLQPEDIAAYYCQQYDSLPITFGQGTRLEIK
notes: as for B5
- SKW3 WT vs KO ratio, anti-hKappa-FITC [2]: 2.7
- SKW3 WT vs KO ratio, anti-mFc-647 [2]: 8.8
- PBMCs CD4+ gate RL1 binding, anti-mFc 647 [3]: 319000
- PBMCs CD4+ percent bound of viable [3]: 30%
- gMFI on SKW3 WT, anti-hu Kappa FITC [4]: 7790 gMFI
- gMFI on SKW3 WT, anti-mFc 647 [5]: 30700 gMFI

B8: CD8B310 (antibody, human IgG1, kappa, V domains shown)
VH: QVQLKESGPGLVAPSQSLSITCTVSGFSLTNYAVHWVRQSPGKGLEWLGVIWTDGSTDYNAGFISRLSISKDNSKSQVFFKMNSLQADDTAIYYCARNNGYFPAFFAYWGQGTTVTVSS
VL: DVLMTQTPLSLPVSLGDQASISCRSSQTIVHSNGNTYLEWYLQKPGQSPKLLMYKVSNRFSGVPDRFGGSGSGTDFTLKISRVEAEDLGVYYCFQGSHAPFTFGSGTKLEIKR
notes: as for B1
- Cell Binding to Human PanT Signal/Background (of CD4 negative population) [1]: 29

B9: CD8B303 (antibody, human IgG1, kappa, V domains shown)
VH: QVQLKESGPGLVAPSQSLSITCTVSGFSLSIYSIHWVRQPPGKGLEWLGMIWGGGSTDYNSTLNSRLSIIKDNSKSQVFLKMNSLQTDDTAMYYCARNPHHYGGSTGAMDYWGQGTTVTVSS
VL: DVQMIQSPSSLSASLGGTVTITCKASQDIKKYMAWYQHKPGKGPRLLIHYTSSLQPGIPSRFSGSGSGRDYYFSISNLEPEDIATYFCLQYDNLFTFGSGTKLELKR
notes: as for B1
- Cell Binding to Human PanT Signal/Background (of CD4 negative population) [1]: 1180

B10: CD8B246 (antibody, human IgG1, kappa, V domains shown)
VH: QVQLKESGPGILKPSQTLSLTCSFSGFSLSTSGMNVGWIRQPSGKGLEWLAHIWWDDDKYYNPSLKSQLTISKDTSRNQVFLKITSVDTADTATYYCARRGNYGNYEFAYWGQGTTLTVSS
VL: DIQMTQTTSSLSASLGDRVTISCRASQDIRNYLNWYQQKPDGTVKLLIYHTSRLHSGVPSRFSGSGSGTDYSLTISNLEQEDIATYFCQQGNTLPWTFGAGTKLELKR
notes: as for B1
- Cell Binding to Human PanT Signal/Background (of CD4 negative population) [1]: 1110

B11: CD8B304 (antibody, human IgG1, kappa, V domains shown)
VH: QVTLKESGPGILKPSQTLSLTCSFSGFSLSTSGMNVGWIRQPSGKGLEWLAHIWWDDDKYYNPSLKSQLTISKDTSRNQVFLKITSVDTADTATYYCARRGNYGNYEFAYWGQGTTVTVSS
VL: DIQMTQTTSSLSASLGDRVTISCRASQDIRNYLNWYQQKPDGTVKLLIYHTSRLHSGVPSRFSGSGSGTDYSLTISNLDQEDIATYFCQQGNTLPWTFGAGTKLELKR
notes: as for B1
- Cell Binding to Human PanT Signal/Background (of CD4 negative population) [1]: 923

B12: CD8B251 (antibody, human IgG1, kappa, V domains shown)
VH: QVQLKGSGPGLVQPSQSLSITCTVSGFSLTTYAVHWVRQSPGKGLEWLGVIWSGGSTDYNAAFISRLSISKDNSKSQVFFKMNSLQADDTAIYYCARHSYYHYNAMDNWGQGTSVTVSS
VL: DIKMTQSQKFMSTTVGDRVSITCKASQNVGTAVAWYQQKPGQSPKLLIYSASNRYTGVPDRFTGSGSGTDFTLTISNMQSEDLADYFCQQYSSYPFTFGSGTKLEIKR
notes: as for B1
- Cell Binding to Human PanT Signal/Background (of CD4 negative population) [1]: 37

B13: CD8B312 (antibody, human IgG1, kappa, V domains shown)
VH: QVQLQQPGADLVKPGASVKLSCKASGYTFTSFWMHWVKQRPGQGLEWIGNVDPSDSQTHYNQKFKDKATLTVDKSSNTAYMQLSSLTSEDSAVYYCARSTYYRYDGPFTYWGQGTTVTVSS
VL: DIVLTQSPATLSVTPGDSVSLSCRASQSINNNLHWYQQKSHESPRLLIKYTSQSISGIPSRFSGSGSGPDFTLSINSVETEDFGMYFCQQSNSWPLTFGGGTKLEIKR
notes: as for B1
- Cell Binding to Human PanT Signal/Background (of CD4 negative population) [1]: 1090

B14: CD8B347 (antibody, human IgG1, kappa)
heavy: not shown
light: DIQMTQSPASLSASVGETVTITCRASGNIHNYLAWYQQKQGKSPQLLVFNAETLADGVPSRFSGSGSGTQFSLKINSLQPEDFGTYYCQHFWNNPLTLGAGTKLELKRTVAAPSVFIFPPSDEQLKSGTASVVCLLNNFYPREAKVQWKVDNALQSGNSQESVTEQDSKDSTYSLSSTLTLSKADYEKHKVYACEVTHQGLSSPVTKSFNRGEC
notes: as for B1
- Cell Binding to Human PanT Signal/Background (of CD4 negative population) [1]: 1200

B15: CD8B356 (antibody, human IgG1, kappa, V domains shown)
VH: DVQLQESGPGLVKPSQSLSLTCSVTGYSITSGYYWNWIRQFPGNKLEWMGYISYDGSNNYNPSLKNRISITRDTSKNQFFLKLNSVTTEDTATYYCVRNHGDAMDYWGQGTSVTVSS
VL: DIVLTQSQKFMSTTVGDRVSITCKASQNVGTAVAWYQQKPGQSPKLLIYSASYRYTGVPDRFTGSGSGTHFTLTISNMQSEDLADYFCQQYSSYLTFGSGTKLEIKR
notes: as for B1
- Cell Binding to Human PanT Signal/Background (of CD4 negative population) [1]: 777

B16: CD8B269 (antibody, human IgG1, kappa, V domains shown)
VH: DVQLQESGPGLVKPSQSLSLTCSVTGYSITSGYYWNWIRQFPGNKLEWMGYISYDGSNNYNPSLKNRISITRDTSKNQFFLKLNSVTTEDTATYYCVRNHGDAMDHWGQGTTLTVSS
VL: DIVMTQSQKFMSTSVGDRVRVTCKASQNVGTDVAWYQQKPGQSPKALIYSASYRYSGVPDRFTGSGSGTDFTLTISDVQSEDLAEYFCQQYKSYPLTFGAGTKLELKR
notes: as for B1
- Cell Binding to Human PanT Signal/Background (of CD4 negative population) [1]: 26

B17: CD8B319 (antibody, human IgG1, kappa, V domains shown)
VH: QVQLKESGPELKKPGETVKISCKASGYSFTAYYMHWVKQSPEKSLEWIGEINPSAGGTTYNQKFKAKATLTVDKSSSTAFIQLKSLTSEDSAVYYCARWTNPFDYWGQGTTLTVSS
VL: DIVMTQSQKFMSTTVGDRVSITCKASQNVGTAVAWYQQKPGQSPKLLIYSASYRYTGVPDRFTGSGSGTHFTLTISNIQSEDLADYFCQQYNNYLTFGSGTKLEIKR
notes: as for B1
- Cell Binding to Human PanT Signal/Background (of CD4 negative population) [1]: 16

B18: CD8B271 (antibody, human IgG1, kappa, V domains shown)
VH: DVQLQESGPGLVAPSQSLSITCTVSGFSLSIYSIHWVRQPPGKGLEWLGMIWGGGDTDYNSALKSRLSISKDNSESQVFLKMNSLQTDDTAMYYCARNPHYYGGTYEYFDVWGTGTTVTVSS
VL: DIQMTQTTSSLSASLGDRVTISCSASQGISNYLNWYQQKPDGTVKLLIYDTSILYSGVPSRFSGSGSGTDYSLTISNLEPEDVATYYCQQYSNLPYTFGSGTKLEIKR
notes: as for B1
- Cell Binding to Human PanT Signal/Background (of CD4 negative population) [1]: 911
